{
  "source": "paper PMC10540217",
  "about": "“Native Semisynthesis of Isopeptide-Linked Substrates for Specificity Analysis of Deubiquitinases and Ubl Proteases” (Journal of the American Chemical Society, 2023)",
  "biological_target": "SUMO2-KG-TAMRA (human, UniProt P61956 1-95, C-terminal glycine linked by an isopeptide bond to the lysine side chain of the KG-TAMRA peptide)",
  "sequence (P61956 whole entry, the tested form may be a part)": "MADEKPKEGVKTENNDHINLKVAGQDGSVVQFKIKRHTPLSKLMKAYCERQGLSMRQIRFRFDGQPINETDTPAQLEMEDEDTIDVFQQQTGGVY",
  "assay": "cell-based or functional assay",
  "data": [
    {"binder": "USPL1 catalytic domain (enzyme, human, UniProt Q5W0Q7 227-500, looked up) VQWKNAYALCWLDCILSALVHSEELKNTVTGLCSKEESIFWRLLTKYNQANTLLYTSQLSGVKDGDCKKLTSEIFAEIETCLNEVRDEIFISLQPQLRCTLGDMESPVFAFPLLLKLETHIEKLFLYSFSWDFECSQCGHQYQNRHMKSLVTFTNVIPEWHPLNAAHFGPCNNCNSKSQIRKMVLEKVSPIFMLHFVEGLPQNDLQHYAFHFEGCLYQITSVIQYRANNHFITWILDADGSWLECDDLKGPCSERHKKFEVPASEIHIVIWERK", "values": [
      {"measurement": "catalytic efficiency in the fluorescence-polarization cleavage assay, SUMO2-KG-TAMRA against SUMO1-KG-TAMRA", "value": "~25", "unit": "fold"}
    ]}
  ]
}
